Experimental data taken from patent publication US20160264648A1 (OSAKA UNIVERSITY, published 2016).

B1: human monoclonal antibody (HuMAb) 1H11 (antibody, V domains shown)
VH: QVQLVQSGAEVKKPGSSVKVSCKSSGGNFNNYAVSWVRQAPGQGLEWMGGISPIFGSTNHAQKFQGRVTISADIFTNTAYMELSSLRSDDTAIYYCARGRGYYFYHAMDVWGQGSTVTVSS
VL: QSALTQPASVSGSPGQSITISCTGTSSDVGGYNYVSWYQQHPGEAPKLMISDVSNRPSGVSNRFSGSKSGNTASLTISGLQAEDEADYYCTSYTSSNTLVFGGGTKLTVL
B2: human monoclonal antibody (HuMAb) 2H5 (antibody, V domains shown)
VH: B1 VH
VL: QSVLTQPPSVSAAPGQKVTISCSGSSSNIGHNFVSWYQQLPATAPKLLIYDTDKRPSGIPDRFSGSKSGTSATLGITGLQTGDEADYYCGTWDSSLSSVIFGGGTKLTVL

Tests used:
[1] = target: hemagglutinin (HA) of influenza A virus A/PR8/1934 (seasonal H1N1) (influenza A virus A/PR8/1934 (H1N1sea)) (UniProt P03452); assay: cell-based or functional assay
[2] = target: hemagglutinin (HA) of influenza A virus A/Brisbane/59/2007 (seasonal H1N1) (influenza A virus A/Brisbane/59/2007 (H1N1sea)); assay: cell-based or functional assay
[3] = target: hemagglutinin (HA) of influenza A virus A/Suita/104/2011 (H1N1pdm) (influenza A virus A/Suita/104/2011 (H1N1pdm)); assay: cell-based or functional assay
[4] = target: hemagglutinin (HA) of influenza A virus A/Osaka/168/2009 (H1N1pdm) (influenza A virus A/Osaka/168/2009 (H1N1pdm)); assay: cell-based or functional assay
[5] = target: hemagglutinin (HA) of influenza A virus A/Turkey/Wisconsin/1/1966 (H9N2) (influenza A virus A/Turkey/Wisconsin/1/1966 (H9N2)) (UniProt P03457); assay: cell-based or functional assay
[6] = target: hemagglutinin (HA) of influenza A virus A/Suita/117/2011 (H1N1pdm) (influenza A virus A/Suita/117/2011 (H1N1pdm)); assay: cell-based or functional assay
[7] = target: hemagglutinin (HA) of influenza A virus A/Suita/105/2011 (H1N1pdm) (influenza A virus A/Suita/105/2011 (H1N1pdm)); assay: cell-based or functional assay
[8] = target: hemagglutinin (HA) of influenza A virus A/Aichi/2/1968 (H3N2) (influenza A virus A/Aichi/2/1968 (H3N2), UniProt P03437 17-566); assay: IFA on virus-infected MDCK cells
[9] = target: hemagglutinin (HA) of influenza A virus A/Chicken/Egypt/R1MD12-3/2008 (H5N1) (influenza A virus A/Chicken/Egypt/RIMD12-3/2008 (H5N1)); assay: cell-based or functional assay
[10] = target: hemagglutinin (HA) of influenza A virus A/Duck/Egypt/D1Br12/2007 (H5N1) (influenza A virus A/Duck/Egypt/D1Br12/2007 (H5N1)); assay: cell-based or functional assay
[11] = target: hemagglutinin (HA) of influenza A virus A/Turkey/Wisconsin/1/1966 (H9N2) (influenza A virus …, UniProt P03457 19-560); assay: cell-based or functional assay
[12] = target: hemagglutinin (HA) of influenza A virus A/PR8/1934 (seasonal H1N1) (influenza A virus A/PR8/1934 (H1N1sea), UniProt P03452 18-565); assay: cell-based or functional assay

Molecule	Neutralization activity (VN50 value µg/ml) [1]	Neutralization activity (VN50 value µg/ml) [2]	Neutralization activity (VN50 value µg/ml) [3]	Neutralization activity (VN50 value µg/ml) [4]	Neutralization activity (VN50 value µg/ml) [5]	Neutralization activity (VN50 value µg/ml) [6]	Neutralization activity (VN50 value µg/ml) [7]	binding result [8]	Neutralization activity (VN50 value µg/ml) [9]	Neutralization activity (VN50 value µg/ml) [10]	Neutralization activity (VN50 value µg/ml) [11]	Neutralization activity (VN50 value µg/ml) [12]
mouse MAb C179 capable of exhibiting a broad reactivity with HAs belonging to group 1 (antibody)	3.1 µg/mL	5.57 µg/mL	5.98 µg/mL	5.68 µg/mL	5.53 µg/mL	5.73 µg/mL	3.11 µg/mL					
B1		2.89 µg/mL	11.3 µg/mL	0.78 µg/mL		11.6 µg/mL	11.4 µg/mL	no binding	6.12 µg/mL	6.08 µg/mL	11.8 µg/mL	2.87 µg/mL
B2		5.53 µg/mL	6 µg/mL	1.51 µg/mL		6.03 µg/mL	6.21 µg/mL	no binding	11.7 µg/mL	6.05 µg/mL	> 100 µg/mL	5.83 µg/mL
